Experiment [1] concerns the target cOmpT D267S (Escherichia coli (avian pathogenic strain E058)) (UniProt P09169).
Experiment [2] addresses cOmpT D267S/S276T (Escherichia coli (avian pathogenic strain E058)) (UniProt P09169).
Experiment [3] concerns the target cOmpT S276T (Escherichia coli (avian pathogenic strain E058)) (UniProt P09169).
The target in experiment [4] is chromosome-encoded OmpT (cOmpT) of avian pathogenic Escherichia coli E058 (Escherichia coli (avian pathogenic strain E058)) (UniProt P09169).
The target of experiment [5] is pOmpT S267D (Escherichia coli (avian pathogenic strain E058)).
The target of experiment [6] is pOmpT S267D/T276S (Escherichia coli (avian pathogenic strain E058)).
The target of experiment [7] is pOmpT T276S (Escherichia coli (avian pathogenic strain E058)).
Experiment [8] deals with plasmid-encoded OmpT (pOmpT or ArlC) of avian pathogenic Escherichia coli E058 (Escherichia coli (avian pathogenic strain E058)).

Consider “synthetic FRET substrate 2Abz-SLGRKIQI-K(Dnp)-NH2 (peptide)”, for which the Km of cleavage of the FRET substrate by whole E. coli BL21 expressing the protease (0–240 μM substrate, Michaelis–Menten fit) in experiment [1] is 0.0167 µM; in experiment [2] it was 0.0408 µM; in experiment [3], 0.0475 µM; in experiment [4], 0.0107 µM; in experiment [5] it was 0.0281 µM; in experiment [6] it was 0.0215 µM. In addition, the figures for the Km of cleavage of the FRET substrate by whole E. coli BL21 expressing the protease (0–240 μM substrate, Michaelis–Menten fit) in experiment [7] and in experiment [8] were 0.0157 µM and 0.0667 µM, respectively.
